Here are results for three molecules from US20110038869A1 (Genmab, published 2011).

The target of experiment [1] is T1, biotinylated CD32bECDHis (human, UniProt P31994 43-223, limits assumed, biotinylated (sites not given)).
T1 sequence (looked up): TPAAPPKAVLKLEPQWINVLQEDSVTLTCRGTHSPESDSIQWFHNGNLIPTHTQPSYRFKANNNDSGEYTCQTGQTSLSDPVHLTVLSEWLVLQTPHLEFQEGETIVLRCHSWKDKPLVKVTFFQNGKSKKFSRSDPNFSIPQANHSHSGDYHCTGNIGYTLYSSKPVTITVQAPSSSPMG
The experiment in a line: competition ELISA, competitor 053. The method, then: (§1) ELISA wells were coated overnight at 4° C. with anti-CD32b HuMabs serially diluted in PBS. The ELISA wells were washed with PBS, blocked for one hour at room temperature with 2% (v/v) chicken serum (Gibco, Paisley, Scotland) in PBS and washed again with PBS. Subsequently, the immobilized antibodies were incubated with biotinylated CD32bECDHis serially diluted in PBSTC. After washing with PBS/Tween, bound biotinylated CD32bECDHis was incubated with Streptavidin-poly-HRP (Sanquin, Amsterdam, The Netherlands) for 1 hr at RT an the reaction was developed as described supra.
(§2) To this end, ELISA wells coated with anti-CD32b HuMabs were incubated in the presence of an excess of CD32b-specific antibody and the predetermined concentration of biotinylated CD32bECDHis in fluid phase. The reaction was developed as described.
(In an ELISA, binding on a coated surface is turned into a signal by an enzyme label.)

For experiment [2], the target named is T1, biotinylated CD32bECDHis. Kind of experiment: competition ELISA, competitor 016. Here is the method: as §1, §2
Experiment [3] concerns the target T1, biotinylated CD32bECDHis. Kind of experiment: competition ELISA, competitor 022. Here is the method:
as §1, §2

Experiment [4] deals with T1, biotinylated CD32bECDHis. Kind of experiment: competition ELISA, competitor 026. Here is the method:
as §1, §2

Experiment [5] concerns the target T2, full length CD32b2 on transfected IIA1.6 cells (human, UniProt P31994-2 43-291).
T2 construct: whole, on cells; also called IIA1.6-CD32b2
T2 sequence (looked up): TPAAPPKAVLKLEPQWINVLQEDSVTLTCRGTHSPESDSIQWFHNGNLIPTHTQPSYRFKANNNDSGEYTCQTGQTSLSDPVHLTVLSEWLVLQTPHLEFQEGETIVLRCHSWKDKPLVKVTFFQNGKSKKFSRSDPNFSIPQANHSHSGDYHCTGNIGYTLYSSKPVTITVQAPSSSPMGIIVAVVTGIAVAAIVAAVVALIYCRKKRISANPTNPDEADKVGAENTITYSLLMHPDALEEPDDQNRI
The experiment in a line: flow cytometry on IIA1.6-CD32b2 cells. Here is the method: (§3) After harvesting and counting, IIA1.6 cells stably transfected with full length CD32a and CD32b (van den Herik-Oudijk et al., 1994), control IIA1.6 cells and Daudi-luc cells were resuspended in PBS (1×10⁶ cells/ml). Cells were put in 96-well V-bottom plates (100 μl/well) and washed twice with FACS buffer (PBS supplemented with 0.1% BSA and 0.02% Na-azide). Thereafter, 50 μl of serially diluted HuMab in FACS buffer was added to the cells and incubated for 30 minutes at 4° C. After washing three times with FACS buffer, 50 μl of phycoerythrin (PE)-conjugated rabbit anti-human IgG (Jackson ImmunoResearch Europe), diluted 1:200 in FACS buffer, was added. After 30 minutes at 4° C. (in the dark), cells were washed three times, and specific binding of the HuMabs was detected by flow cytometry on a FACSCalibur (BD Biosciences). […] Binding curves were analyzed using non-linear regression (sigmoidal dose-response with variable slope) using GraphPad Prism V4.03 software (GraphPad Software, San Diego, Calif., USA).
To analyze binding of anti-CD32b HuMabs to CD32b1 and CD32b2, IIA1.6 cells transfected with full length CD32b1 or CD32b2 (van den Herik-Oudijk et al., 1994) were prepared as described supra. The assay was performed as described supra. Flow cytometry was performed on a FACS Canto II (BD Biosciences).
On the technique in general: A flow cytometer gives signals particle by particle.

Experiment [6] concerns the target T1, biotinylated CD32bECDHis. Kind of experiment: competition ELISA, competitor 034. Here is the method: as §1, §2
The target of experiment [7] is T1, biotinylated CD32bECDHis. Kind of experiment: competition ELISA, competitor 028. Here is the method:
as §1, §2

The target in experiment [8] is T1, biotinylated CD32bECDHis. The experiment in a line: competition ELISA, competitor 2B6. The method, then:
as §1, §2

Experiment [9] addresses T1, biotinylated CD32bECDHis. The experiment in a line: competition ELISA, competitor 063. The method, then: as §1, §2
Experiment [10] deals with T1, biotinylated CD32bECDHis. Kind of experiment: competition ELISA, competitor 020. The method, then: as §1, §2
Experiment [11] has as its target T1, biotinylated CD32bECDHis. The experiment in a line: competition ELISA, competitor 038. Here is the method: as §1, §2
For experiment [12], the target named is T1, biotinylated CD32bECDHis. The experiment in a line: competition ELISA, competitor 024. The method, then:
as §1, §2

Experiment [13] has as its target T3, CD32bECDHis (human, UniProt P31994 43-223, limits assumed).
T3 construct: Produced in HEK-293F cells; also called extracellular domain of CD32b with C-terminal His tag; soluble CD32b
T3 sequence (looked up): T1 sequence (looked up)
Kind of experiment: ELISA on coated CD32bECDHis. Here is the method:
The specificity of the obtained anti-CD32b HuMabs was evaluated by ELISA. ELISA plates (Microlon; Greiner Bio-One) were coated overnight at 4° C. with 2 μg/ml of CD32aECDHis and CD32bECDHis in PBS, pH 7.4. Coated ELISA plates were washed with PBS, blocked for one hour at room temperature with 2% (v/v) chicken serum (Gibco, Paisley, Scotland) in PBS and washed again with PBS. Subsequently, HuMabs, serially diluted in PBSTC (PBS supplemented with 2% (v/v) chicken serum and 0.05% (v/v) Tween-20), were incubated for 1 hr at RT under shaking conditions (300 rpm). Bound HuMabs were detected using HRP-conjugated goat-anti-human IgG antibodies (Jackson ImmunoResearch Europe) diluted 1:10,000 in PBSTC, which were incubated for 1 hr at RT under shaking conditions (300 rpm). […] Binding curves were analyzed using non-linear regression (sigmoidal dose-response with variable slope) using GraphPad Prism V4.03 software.

The target in experiment [14] is T3, CD32bECDHis. Kind of experiment: TR-FRET competition against HuMab-KLH-AlexaFluor 647. The text has this:
To study the interaction of anti-CD32b HuMabs with CD32b and CD32a in more detail TR-FRET technology was applied. To this end, CD32bECDHis and CD32aECDHis were labeled with a fluorescent donor molecule directed against the histidine tag (Anti-6×His Europium3+, PerkinElmer, Boston Mass.).
Briefly, all dilutions were made in 0.5× Lance detection buffer (PerkinElmer, Boston Mass.) supplemented with 0.2% BSA (obtained via dilution of 7.5% BSA Stabilizer solution, cat: CR84-100, PerkinElmer) and 0.03% (v/v) Tween-20 (Riedel de Haen, Seelze, Germany). CD32bECDHis and CD32aECDHis were diluted to 0.5 μg/ml. […] Anti-6×His Europium3+ (PerkinElmer, Boston Mass.) was diluted to 0.15 μg/ml. A 4-fold serial dilution of the tested HuMab antibody was made in a 96 wells non-binding plate (cat. 650261, Greiner Bio-one, Frickenhausen, Germany), ranging from 10 μg/ml-0.04 ng/ml. […] After overnight incubation at 4° C. in the dark, fluorescence was measured using an EnVision 2101 Multilabel reader (PerkinElmer, Boston, Mass.) applying the following settings; Lance/Delfia dual mirror, emission filter 615-665 nm, excitation filter 320 nm, delay time 60 μs, window 100 μs, 100 flashes, 2000 μs per cycle and bidirectional row-by-row reading. Binding curves were analyzed using non-linear regression (sigmoidal dose-response with variable slope) using GraphPad Prism V4.03 software (GraphPad Software, San Diego, Calif., USA).
(In general: Time-resolved FRET reads energy transfer from a long-lived donor to a nearby acceptor.)

Experiment [15] addresses T4, full length CD32a on stably transfected IIA1.6 cells (human, UniProt P12318 34-317).
T4 construct: whole, on cells; also called IIA1.6-CD32a; CD32a-expressing IIA1.6 cells
T4 sequence (looked up): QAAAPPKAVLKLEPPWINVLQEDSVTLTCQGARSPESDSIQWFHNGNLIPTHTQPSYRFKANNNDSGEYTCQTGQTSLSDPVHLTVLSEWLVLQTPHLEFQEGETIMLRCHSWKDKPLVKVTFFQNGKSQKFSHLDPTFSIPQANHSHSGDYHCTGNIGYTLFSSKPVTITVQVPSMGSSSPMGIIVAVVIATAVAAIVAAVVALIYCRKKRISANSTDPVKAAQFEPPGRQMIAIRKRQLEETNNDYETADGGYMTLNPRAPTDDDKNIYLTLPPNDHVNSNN
Kind of experiment: flow cytometry on IIA1.6-CD32a cells. Here is the method: as §3

Experiment [16] has as its target T3, CD32bECDHis. The experiment in a line: SPR BIAcore 3000, antibody immobilized, CD32bECDHis analyte. Here is the method:
Antibody binding to CD32a and CD32b was analyzed by surface plasmon resonance in a BIAcore 3000 (GE Healthcare). CD32aECDHis and CD32bECDHis derived from HEK293 cells were used for the analysis. HuMab antibodies were immobilized on the CM-5 sensor chip according to the procedure recommended by the manufacturer. Briefly, after surface activation by EDC and NHS HuMab antibody was injected over the activated CM-5 surface in 10 mM sodium-acetate, pH ranging from 4.0 to 5.5 at 5 μl/min. followed by 1 M Ethanolamine for deactivation. Concentration series of CD32bECDHis in HBS-EP buffer were injected over the immobilized antibodies at a flow rate of 30 μl/min for 180 sec. Regeneration of the HuMab surface was performed by injection of 10 mM Glycine-HCl pH 2.0 or 10 mM sodium acetate pH 3.0. […] Kinetic analysis is performed using double reference subtraction and model 1:1 (langmuir) binding analysis. Specificity was studied by injecting CD32aECDHis at a concentration of […] over immobilized HuMab and isotype control antibodies under the same conditions as for the CD32b measurements.

Positions count from the first letter of the chain named.

B1: Antibody 053 (antibody, human IgG1, V domains shown)
VH: QVQLVESGGGVVQPGRSLRLSCAVSGFTFRSYGMHWVRQAPGKGLEWVAVIWYDGSIKYYADSVKGRFTISRDNSKNTLYLQMNSLRAEDTAVYFCAREGGRDAFDIWGQGTMVTVSS
VL: AVQLTQSPSSLSASVGDRVTITCRASQGISSALAWYQQKPGKAPKLLIYDASSLESGVPSRFSGSGSGTDFTLTISSLQPEDFATYCCQQFNSYPHTFGGGTKVEIKR
notes: Human antibody; also called HuMab 053
One may read the EC50 as the midpoint of the concentration-response curve. In the case of B1, the “% residual binding” value with biotinylated CD32bECDHis [1] turned out to be 40%; with biotinylated CD32bECDHis [2], 98%; with biotinylated CD32bECDHis [3] it was 8%; in the experiment with biotinylated CD32bECDHis [4], 26%; in the experiment with biotinylated CD32bECDHis [6], 4%; with biotinylated CD32bECDHis [7] it was 13%. Further, the “% residual binding” value in the experiment with biotinylated CD32bECDHis [8] was 195%; in the experiment with biotinylated CD32bECDHis [9], 43%; in the experiment with biotinylated CD32bECDHis [10] it was 19%; in the experiment with biotinylated CD32bECDHis [11] it was 168%; in the experiment with biotinylated CD32bECDHis [12] it was 6%. The EC50 in experiment [5] is 1.06 nM.

B2: Antibody 016 (antibody, human IgG1, V domains shown)
VH: QVQLVESGGGVVQPGRSLRLSCAASGFTFSSYGIHWVRQAPGKGLEWVAVIGYDGSDKNYADSVKGRFTIFRDNSKNTLYLQMNSLRAEDTAVYYCARDQLGDAFDIWGQGTMVTVSS
VL: EIVLTQSPATLSLSPGERATLSCKASQSVSSSLAWYQQKPGQAPRLLIYDASNRATGIPARFSGSGSGTDFTLTISSLEPEDFAVYYCQQRSNWPPYTFGQGTKLEIKR
notes: Human antibody; also called HuMab 016
One may read the IC50 as the concentration needed to halve the response being measured. In general, Kd refers to the equilibrium constant for the complex coming apart. What is called koff is a measure of how fast the partners let go of each other. A lower koff goes with a long-lived complex. As usually defined, the kon is the rate constant with which the complex forms. Read a low kon as slower complex formation. B2 registered a concentration for a half-maximal effect (EC50) with CD32bECDHis [13] of 0.28 nM. The molecule further displayed an IC50 in the experiment with CD32bECDHis [14] of 0.24 nM. Moreover, the EC50 in experiment [15] was 0.25 nM. In experiment [5], this molecule came in with an EC50 of 0.11 nM. In the experiment with CD32bECDHis [16], this molecule showed a Kd of 1.1 nM, a koff of 0.0028 s⁻¹ and a kon of 2.66e+06 M⁻¹ s⁻¹.

B3: Antibody 063 (antibody, human IgG1, V domains shown)
VH: EVQLLESGGGLVQPGGSLRLSCAASGFTFSSYAMSWVRQAPGKGLEWVSAISDSGGSTYYADSVKGRFTISRDNSKNTLYLQMNSLRAEDTAAYYCAKEIAVALFDYWGQGTLVTVSS
VL: B2 VL with K24R, S32Y, N93S
notes: Human antibody; also called HuMab 063
In the case of B3, the “% of maximal Fab-mediated inhibition” value with CD32bECDHis [14] is roughly 70%. In addition, the “% residual binding” value with biotinylated CD32bECDHis [1] is 79%; in the experiment with biotinylated CD32bECDHis [2], 103%; in the experiment with biotinylated CD32bECDHis [3] it was 29%; in the experiment with biotinylated CD32bECDHis [4], 70%; with biotinylated CD32bECDHis [6] it was 8%; with biotinylated CD32bECDHis [7], 49%. Besides, the “% residual binding” value with biotinylated CD32bECDHis [8] turned out to be 98%; in the experiment with biotinylated CD32bECDHis [9], 0%; with biotinylated CD32bECDHis [10], 59%; with biotinylated CD32bECDHis [11], 102%; in the experiment with biotinylated CD32bECDHis [12], 23%.
